Experimental data from patent publication US20190112365A1 (EISAI R AND D MANAGEMENT, published 2019).

What was measured:
[1] = biological target: T1, Human Tau 2N4R, wild type, recombinant full length (human, UniProt P10636 2-758); test: SPR BIAcore T100, mAb captured by protein A/G, Tau injected
T1 construct: Full length 2N4R isoform; monomer in SPR and ELISA; heparin-induced aggregates or seeds in the functional assays; also called Tau441; Tau-441
Experimental: (§1) Kinetic analysis of the interaction of the anti-Tau mouse monoclonal antibodies generated in Example 1 with human wild type Tau (2N4R) and the equivalent P301S mutant Tau protein was conducted using a BIAcore™ T100 instrument. Recombinant human full length Tau proteins were expressed in E. coli and then purified by Cellufine™ phosphate affinity chromatography followed by ammonium sulfate precipitation and reverse phase HPLC chromatography.
(§2) Purified antibodies from hybridomas were captured by protein A/G immobilized on a CM5 sensor chip (GE Healthcare). The wild type and P301S Tau proteins were then injected onto the sensor chip at five different concentrations and the affinity (equilibrium dissociation constant, KD) was calculated according to the manufacturer's instruction.

[2] = biological target: T2, P301S mutant human 2N4R Tau, recombinant full length (human, UniProt P10636 2-758); test: as above
T2 construct: The equivalent P301S mutant of 2N4R Tau; also called P301S-2N4R Tau; P301S Tau
T2 sequence (P10636 other isoform, or with tags, fused parts or gaps P301S P301S limits assumed): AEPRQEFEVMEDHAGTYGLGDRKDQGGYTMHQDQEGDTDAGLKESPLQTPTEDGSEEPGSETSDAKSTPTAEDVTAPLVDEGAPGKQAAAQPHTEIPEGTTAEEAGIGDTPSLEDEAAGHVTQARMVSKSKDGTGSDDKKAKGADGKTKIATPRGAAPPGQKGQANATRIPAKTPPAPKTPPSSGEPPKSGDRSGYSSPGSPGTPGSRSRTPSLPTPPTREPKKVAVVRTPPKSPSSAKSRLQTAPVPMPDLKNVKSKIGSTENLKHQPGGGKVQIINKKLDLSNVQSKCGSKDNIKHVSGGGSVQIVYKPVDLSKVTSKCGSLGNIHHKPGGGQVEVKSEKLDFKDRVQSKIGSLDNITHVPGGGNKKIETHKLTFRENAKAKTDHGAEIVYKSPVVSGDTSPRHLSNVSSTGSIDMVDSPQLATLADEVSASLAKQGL
Experimental: as §1, §2

[3] = biological target: T1, Human Tau 2N4R, wild type, recombinant …; test: SPR BIAcore, biotinylated mAb on streptavidin (CAP) chip, single cycle, 1:1 Langmuir
Experimental: 400 μg of each antibody was diluted to 2 mg/mL and buffer-exchanged into 0.1 M sodium bicarbonate, pH 8.3 using 0.5 mL Zeba™ 40 kDa MWCO desalting columns (Thermo). NHS-PEG4-biotin, prepared immediately before use by dissolving in water to a 20 mM final stock concentration, was added to antibodies at a 5:1 molar ratio (biotin:MAb) and conjugated for 1 hr at room temperature. Excess biotin was removed by two sequential buffer exchanges into 1×DPBS using 0.5 mL Zeba™ 40 kDa MWCO desalting columns. For the BIAcore™ assay, antibodies were diluted to 2 μg/mL in PBS-P+/0.2% BSA (the same preparation used for the running buffer), centrifuged at 14,000 g for 5 min at room temperature, and the supernatant transferred to a new tube. Injection time was subsequently determined for each antibody to achieve a capture level of ˜225 RU.
Biotinylated humanized and mouse mAbs were captured on a streptavidin-coated chip and kₐ, kd, and KD were determined for binding to Tau (Table 11). […] The affinity of 7G6-HCzu8-LCzu6, 7G6-HCzu24-LCzu15, 7G6-HCzu24-LCzu18, 7G6-HCzu25-LCzu15, and 7G6-HCzu25-LCzu18 were all similar.

[4] = biological target: T1, Human Tau 2N4R, wild type, recombinant …; test: SPR BIAcore, mAb captured by anti-mouse IgG, Tau flowed, 1:1 Langmuir
Experimental: All experiments were performed using a BIAcore™ T-100 instrument (GE Healthcare). 10 μL anti-human IgG (monoclonal mouse anti-human Fc) from human antibody capture kit (GE Healthcare) was diluted to 25 μL/mL in 200 μL final immobilization buffer (10 mM sodium acetate, pH 5.0). The flow rate was set to 5 μL/min, flowpath 1. Fifty μL N-hydroxysuccinamide (NETS) and 50 μL 1-ethyl-3-(3-dimethylaminopropyl) carbidiimide (EDC) were mixed and injected for 420 sec to activate the CM5 chip surface. The diluted antibody was injected for 360 seconds followed by 1 M ethanolamine for 420 seconds. The flowpath was then switched to flowpath 2. A new EDC/NHS mixture was prepared and the procedure was repeated for flow cell 2. The surface was conditioned by 2 injections of 30 sec using flowpath 1, 2 at 30 μL/min of 3M MgCl₂. For the anti-mouse surface, 10 μL anti-mouse IgG (polyclonal rabbit anti-mouse IgG) from mouse antibody capture kit (GE Healthcare) was diluted to 30 μL/mL in 324 μL final immobilization buffer (10 mM sodium acetate, pH 5.0). The flow rate was set to 5 μL/min, flowpath 3. Fifty μL NHS and 50 μL EDC were mixed and injected for 420 sec to activate the chip surface. The diluted antibody was injected for 420 sec. 1 M ethanolamine was injected for 420 sec. Flow path was switched to flowpath 4. A new EDC/NHS mixture was prepared and the procedure was repeated for flow cell 4. The surface was conditioned by 2 injections of 30 sec using flowpath 3, 4 at 30 μL/min of 10 mM glycine, pH 1.7.
Binding of humanized and mouse antibodies were analyzed by BIAcore™ to determine their relative association rates (ka), dissociation rates (kd), and equilibrium binding constants (KD). Anti-mouse or anti-human antibodies were immobilized on a CM5 chip and sample mAbs were captured on the chip. 2N4R Tau was flowed over the chip and binding observed. The binding constants kₐ, kd, and KD were determined using a 1:1 Langmuir fitting model. Both 7G6-HCzu12-based mAbs had similar kₐ and kd values (Table 8). However, the kₐ of 7G6-HCzu11 was decreased, though the kd was unaffected. Therefore, human residues in the Vh3 framework impact binding to Tau.

[5] = biological target: T3, Tau peptide KDNIKHVSGGGSVQI (human); test: epitope substitution scanning on peptide chip
T3 construct: Variant peptide of the substitution scan
T3 peptide: KDNIKHVSGGGSVQI
Text: FIG. 4 illustrates the results of the murine 7G6 antibody epitope substitution scanning of the peptide sequence […] (SEQ ID NO: 26), corresponding to amino acids 294 to 308 of the human 2N4R Tau protein. Each amino acid position of the peptide was replaced by every naturally occurring amino acid possible, printed onto a glass chip, and probed with the ms7G6 antibody. FIG. 4 illustrates the results for select peptides (SEQ ID NOs 38-78, respectively). While ms7G6 antibody binding allows some variation in the second position (valine) of SEQ ID NO: 79, antibody binding is completely dependent on the proline residue of SEQ ID NO: 79. No binding of antibody 7G6 to […] (SEQ ID NO: 59) was observed. The latter is the sequence present in Tau P301S mutant protein.
The ms7G6 anti-Tau antibody was diluted to a concentration of 1 μg/mL in PBS (pH 7.4) containing 0.05% Tween 20 and 10% Rockland blocking buffer (MB-070). The diluted antibody was incubated on the chip for 16 hours at 4° C. with shaking at 140 rpm. Primary antibody was removed and the chip was washed in PBS (pH 7.4)/0.05% Tween 20. […] Fluorescence images were acquired on the LI-COR Odyssey™ Imaging System and the microarray data was finally analyzed using the PepSlide™ Analyser software.

T1 sequence (P10636 other isoform, or with tags, fused parts or gaps limits assumed): as the sequence (P10636 other isoform, or with tags, fused parts or gaps P301S P301S limits assumed) above, with S300P counted along it

Kd [1]: 0.052 nM
Kd [2]: 0.57 nM
Kd [3]: 0.0636 nM
koff [3]: 0.000195 s⁻¹
kon [3]: 3.11e+06 M⁻¹ s⁻¹
Kd [4]: 3.31 nM
koff [4]: 0.00153 s⁻¹
kon [4]: 464000 M⁻¹ s⁻¹
binding result [5]: no binding (tested: 1 µg/mL)
B1: murine 7G6 antibody (antibody, mouse IgG2b, V domains shown)
VH: QVQLLQPGAELVKPGASVIMSCKASGYTFTTYWITWVKQRPGQGLEWIGDIYPGSSICNYNEKFKSKATLTVDTSSSTAYMQLNSLTSEDSAVYYCAREDGYDAWFAYWGQGTLVTVSA
VL: DVLMTQTPLSLPVSLGDQASISCRSSQSILHSNGNTYLEWYLQKPGQSPKLLICKVSNRFSGVPDRFSGSGSGTDFTLKISRVEAEDLGVYYCFQGSHVPFTFGSGTKLEIK
notes: Mouse IgG2b, kappa, purified from hybridoma; also called ms7G6; mouse 7G6
